As usually defined, the IC50 is the midpoint of a concentration-inhibition curve. Higher therefore signals a need for much substance. As usually defined, the koff is a measure of how fast the partners let go of each other. The kon is the second-order rate constant of association. Read a high kon as faster complex formation.

Some results are limits rather than exact numbers.

The target in assay [1] is T1, mouse EphA4 extracellular region-SEAP-His protein (mouse). The assay is described as follows: competition ELISA, competitor biotinylated mouse Ephrin B2-Fc. On the procedure:
Antibody A-Fab and antibody A-F(ab′)₂ obtained in Example 5 were evaluated for their inhibitory activity against the binding between EphA4 and its ligand according to the following steps. Each well of a 96-well plate (Nunc) was coated with an anti-alkaline phosphatase antibody (Thermo Fisher Scientific). After incubation overnight at 4° C., each well was blocked with 1% BlockAce (DS Pharma Biomedical) at room temperature for 1 hour. After washing with 0.05% Tween 20/PBS (Thermo Fisher Scientific) three times, the mouse EphA4 extracellular region-SEAP-His protein obtained by the method of Example 1 was added (final concentration: 10 nM) to each well and incubated at room temperature for 1 hour. After washing three times, a ligand and serially diluted antibody A (0, 0.003, 0.01, 0.03, 0.1, 0.3, 1, 3, 10, 30, 100, 300, 1000, and 3000 nM), antibody A-Fab (0, 0.003, 0.01, 0.03, 0.1, 0.3, 1, 3, 10, 30, 100, 300, 1000, and 3000 nM), antibody A-F(ab′)₂ (0, 0.003, 0.01, 0.03, 0.1, 0.3, 1, 3, 10, 30, 100, 300, 1000, and 3000 nM), or the EphA4 inhibitor KYL peptide ([…], 0, 0.0003, 0.001, 0.003, 0.01, 0.03, 0.1, 0.3, 1, 3, 10, 30, 100, 300, 1000, and 3000 μM, its synthesis was outsourced to Toray Research Center) were added to each well. The ligand used was biotinylated mouse Ephrin B2-Fc chimera (R&D Systems, final concentration: 2.5 nM). After incubation at room temperature for 1 hour and subsequent washing three times, horseradish peroxidase-labeled streptavidin (GE Healthcare) was added thereto and incubated at room temperature for 1 hour. After washing three times, a TMBZ (3,3′,5,5′-tetramethylbenzidine, Sigma-Aldrich) solution was added to each well and incubated at room temperature for 2 minutes. An equal amount of a reaction stopping solution (1N H₂SO₄, Wako Pure Chemical Industries) was added to each well. The absorbance at 450 nm was read using a microplate reader (Molecular Devices or PerkinElmer).
Antibody A and antibody A-F(ab′)₂ had 1000 or more times the activity of the KYL peptide, and antibody A-Fab also had 10 or more times the activity of KYL peptide.
On the technique in general: An ELISA detects its analyte on a solid surface through an enzyme-linked reagent.

Assay [2] addresses T1, mouse EphA4 extracellular …. As to the kind of experiment: SPR (Biacore T200), mouse EphA4 extracellular region-SEAP-His captured on an anti-His antibody CM5 chip, F(ab')2 as analyte at 0.6-50 nM, 1:1 fit. On the procedure: (§1) Next, the binding affinity of antibody A-Fab and antibody A-F(ab′)₂ for mouse and human EphA4 was determined by surface plasmon resonance (SPR) using Biacore T200 (GE Healthcare). Antibody A obtained in Example 1 was used as a control for the comparison of each fragment. First, an anti-His tag antibody was immobilized on sensor chip CM5. The immobilization of the anti-His tag antibody on sensor chip CM5 was performed by the amine coupling method using N-hydroxysuccinimide (NHS) and N-ethyl-N′-(3-dimethylaminopropyl)carbodiimide hydrochloride (EDC). Ethanolamine was used in blocking (the sensor chip and the reagents for immobilization were all manufactured by GE Healthcare). The antibody was diluted with a buffer solution for immobilization (10 mM sodium acetate, pH 4.5) into 3 μg/mL and immobilized on the sensor chip according to the protocol attached to Biacore T200.
(§2) Mouse or human EphA4 extracellular region-SEAP-His protein was diluted with a running buffer solution HBS-EP (GE Healthcare, BR-1001-88), injected onto a flow cell for 120 seconds, and captured (amount of the protein captured: approximately 10 to 20 RU). Subsequently, antibody A (50, 16.7, 5.6, 1.9, 0.6, and 0 nM), antibody A-Fab (500, 166.7, 55.6, 18.5, 6.2, and 0 nM), or antibody A-F(ab′)₂ (50, 16.7, 5.6, 1.9, 0.6, and 0 nM) serially diluted using HBS-EP was added to the sensor chip for 120 seconds. […]
Background: Surface plasmon resonance follows binding to a sensor surface in real time, without labels.

For assay [3], the target named is T2, human EphA4 extracellular region-SEAP-His protein (human, UniProt P54764 20-547).
T2 construct: also called hEphA4-SEAP-His
T2 sequence (P54764 20-547): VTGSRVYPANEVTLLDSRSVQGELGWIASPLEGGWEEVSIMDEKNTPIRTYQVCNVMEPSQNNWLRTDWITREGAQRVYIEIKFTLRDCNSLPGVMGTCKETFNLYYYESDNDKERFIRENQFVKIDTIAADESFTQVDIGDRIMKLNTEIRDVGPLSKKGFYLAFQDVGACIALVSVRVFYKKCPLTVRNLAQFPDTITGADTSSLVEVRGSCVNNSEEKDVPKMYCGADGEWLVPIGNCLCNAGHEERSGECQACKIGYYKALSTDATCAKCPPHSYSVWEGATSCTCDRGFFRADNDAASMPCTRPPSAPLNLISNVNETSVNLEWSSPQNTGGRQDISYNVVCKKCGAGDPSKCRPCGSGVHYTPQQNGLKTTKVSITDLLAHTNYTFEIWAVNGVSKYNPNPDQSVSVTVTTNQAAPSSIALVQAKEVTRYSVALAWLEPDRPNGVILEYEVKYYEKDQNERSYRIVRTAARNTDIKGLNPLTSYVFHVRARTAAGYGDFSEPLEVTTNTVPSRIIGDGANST
The assay is described as follows: SPR (Biacore T200), EphA4-SEAP-His captured by anti-His antibody; F(ab')2 (bivalent), not Fab. On the procedure:
as §1, §2

In assay [4] the target is T1, mouse EphA4 extracellular …. The description is as above. The protocol: as §1, §2
In assay [5] the target is T2, human EphA4 extracellular …. The assay is described as follows: SPR (Biacore T200), human EphA4 extracellular region-SEAP-His captured on an anti-His antibody CM5 chip, F(ab')2 as analyte at 0.6-50 nM, 1:1 fit. On the procedure: as §1, §2

T1 sequence (chain, as listed by the source limits assumed): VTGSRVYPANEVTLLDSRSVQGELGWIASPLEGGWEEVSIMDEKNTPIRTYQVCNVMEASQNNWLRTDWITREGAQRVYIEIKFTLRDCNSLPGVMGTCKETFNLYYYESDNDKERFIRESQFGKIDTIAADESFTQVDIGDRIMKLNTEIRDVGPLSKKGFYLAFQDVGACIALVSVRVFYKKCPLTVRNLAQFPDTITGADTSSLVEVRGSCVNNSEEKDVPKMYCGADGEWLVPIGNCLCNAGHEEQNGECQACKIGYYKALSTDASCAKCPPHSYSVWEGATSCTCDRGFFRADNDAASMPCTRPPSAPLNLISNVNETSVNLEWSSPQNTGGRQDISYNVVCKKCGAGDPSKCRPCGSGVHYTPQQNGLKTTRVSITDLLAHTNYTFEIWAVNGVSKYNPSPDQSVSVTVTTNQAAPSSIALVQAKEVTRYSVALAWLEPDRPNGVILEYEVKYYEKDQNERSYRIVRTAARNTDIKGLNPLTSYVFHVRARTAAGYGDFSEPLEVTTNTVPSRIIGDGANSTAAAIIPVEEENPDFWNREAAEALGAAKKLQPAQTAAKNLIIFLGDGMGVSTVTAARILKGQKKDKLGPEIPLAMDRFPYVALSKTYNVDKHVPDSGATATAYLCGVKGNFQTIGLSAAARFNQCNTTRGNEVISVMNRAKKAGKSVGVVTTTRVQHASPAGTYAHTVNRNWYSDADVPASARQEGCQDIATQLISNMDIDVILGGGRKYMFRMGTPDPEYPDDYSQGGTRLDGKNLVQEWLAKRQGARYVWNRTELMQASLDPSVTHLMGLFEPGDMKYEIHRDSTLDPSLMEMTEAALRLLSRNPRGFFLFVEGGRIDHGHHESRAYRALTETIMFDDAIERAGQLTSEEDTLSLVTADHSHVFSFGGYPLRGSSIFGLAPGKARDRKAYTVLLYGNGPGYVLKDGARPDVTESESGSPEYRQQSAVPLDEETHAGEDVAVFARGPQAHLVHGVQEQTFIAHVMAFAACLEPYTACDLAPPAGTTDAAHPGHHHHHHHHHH

B1: antibody A-F(ab')2 (other, not shown: a dimerising Fc or GST)
heavy: QIQLVQSGPELKKPGETVKISCKASGYTFTDYSMHWVKQAPGKGLKWMGWINTETGEPTYADDFKGRFAFSLETSASTAYLQINNLKNEDTATYFCARIPLYYYGSRYWYFDVWGAGTTVTVSS
light: DIQMTQSPASLSVSVGETVTITCRASENIYRNLAWYQQKQGKSPQLLVYAATNLADGVPSRFSGSGSGTQYSLKINSLQSEDFGSYYCQHFWGTPWTFGGGTKLEIKRADAAPTVSIFPPSSEQLTSGGASVVCFLNNFYPKDINVKWKIDGSERQNGVLNSWTDQDSKDSTYSMSSTLTLTKDEYERHNSYTCEATHKTSTSPIVKSFNRNEC
notes: made by pepsin digestion of antibody A; also called F(ab')2 fragment of antibody A
B1 showed a half-inhibitory concentration (IC50) in assay [1] of 2.9 nM. In addition, the “fold activity against KYL peptide” value in assay [1] is at least 1000 fold. The koff in assay [2] was 0.000205 s⁻¹; in assay [5], 0.0333 s⁻¹. Moreover, the on-rate constant (kon) in assay [2] was 8.98e+06 M⁻¹ s⁻¹; in assay [5], 629000 M⁻¹ s⁻¹. Also, the Kd in assay [3] was 0.053 nM; in assay [4], 0.0229 nM.

Values taken from patent US20190077860A1 (EISAI R AND D MANAGEMENT, published 2019).
